# Assay results: the FLAb antibody collection (doi:10.7554/elife.23156)
# B1: scFv; the commonest letter at each place (parent)
# chain 1: EVKLDETGGGLVQPGRPMKLSCVASGFTFSDYWMNWVRQSPEKGLEWVAQIRNKPYNYETYYSDSVKGRFTISRDDSKSSVYLQMNNLRVEDMGIYYCTGSYYGMDYWGQGTSVTVS
# chain 2: DVVMTQTPLSLPVSLGDQASISCRSSQSLVHSNGNTYLRWYLQKPGQSPKVLIYKVSNRFSGVPDRFSGSGSGTDFTLKISRVEAEDLGVYFCSQSTHVPWTFGGGTKLEIK
# Key:
# fluorescein = variants of: B1; assay: Kd (Tite-Seq); details: with fluorescein; format: scFv 4-4-20, heavy + light
# [1] = variants of: B1; assay: yeast surface expression (ratio to wild type); higher = more expressed; details: format: scFv 4-4-20, heavy + light
Variant,Kd (fluorescein),yeast surface expression [1]
chain 1 M105D D106I,≥ 10 µM,0.844
chain 1 G100I Y103F,≥ 10 µM,0.932
chain 1 T28V M34Y,0.00966 µM,0.889
chain 1 N35H W36S,≥ 10 µM,0.692
chain 1 Y32S N35H,≥ 10 µM,0.89
chain 1 M105Y,0.0129 µM,0.866
chain 1 Y103R G109I,≥ 10 µM,0.291
chain 1 F29N S30D,≥ 10 µM,0.949
chain 1 Y32E W36Q,0.216 µM,0.493
chain 1 S30Q D31E N35K,≥ 10 µM,2.59
chain 1 S101Y Y102N D106Y,≥ 10 µM,0.501
chain 1 Y32L W36F,≥ 10 µM,0.728
chain 1 S30T,0.000743 µM,1.07
chain 1 Y102T M105K,0.00708 µM,0.849
chain 1 N35W,≥ 10 µM,0.6
chain 1 N35S,≥ 10 µM,1.04
chain 1 N35H,≥ 10 µM,0.793
chain 1 D31S W36P,≥ 10 µM,3.88
chain 1 Y32D M34Y,≥ 10 µM,0.756
chain 1 G100P G104H,≥ 10 µM,0.68
chain 1 G104Q M105C,≥ 10 µM,0.62
chain 1 S101L G109I,≥ 10 µM,0.297
chain 1 D31R Y32D,≥ 10 µM,0.643

Variant,Kd (fluorescein),yeast surface expression [1]
chain 1 T28E M34R,≥ 10 µM,0.531
chain 1 G100Y Y103C,≥ 10 µM,0.567
chain 1 D31W W33G,9.02 µM,0.542
chain 1 G100L G109R,≥ 10 µM,0.268
chain 1 Y103K G104R W108V,≥ 10 µM,0.32
chain 1 W33I N35Y V37C,≥ 10 µM,0.443
chain 1 G104F W108I,≥ 10 µM,0.146
chain 1 G104A M105P,≥ 10 µM,0.375
chain 1 M105K G109W,≥ 10 µM,0.118
chain 1 Y102F G104K,≥ 10 µM,0.81
chain 1 S30M N35V V37A,≥ 10 µM,0.167
chain 1 Y103N G104P,≥ 10 µM,0.478
chain 1 G104C M105I,≥ 10 µM,0.349
chain 1 Y103M G109Y,≥ 10 µM,0.265
chain 1 F29M S30H Y32S,≥ 10 µM,0.982
chain 1 S30D W33N,≥ 10 µM,1.07
chain 1 T28M S30A W36F,0.00158 µM,0.845
chain 1 Y102A Y103E,≥ 10 µM,1.23
chain 1 S101D W108Y,≥ 10 µM,0.608
chain 1 M34D N35Q,≥ 10 µM,1.78
chain 1 Y102V Y103C,≥ 10 µM,0.798
chain 1 M105A Y107M,≥ 10 µM,0.661
chain 1 Y32L N35F,≥ 10 µM,0.363

Variant,Kd (fluorescein),yeast surface expression [1]
chain 1 F29Q Y32V,≥ 10 µM,0.848
chain 1 T28M S30W,0.00708 µM,0.645
chain 1 D106W G109V,≥ 10 µM,0.0997
chain 1 G100W S101P,≥ 10 µM,0.197
chain 1 G100W S101E,≥ 10 µM,0.429
chain 1 G100D Y103C,≥ 10 µM,0.414
chain 1 Y102H Y107F G109K,≥ 10 µM,0.242
chain 1 S30V M34S,≥ 10 µM,0.569
chain 1 S30H W36F,0.004 µM,0.728
chain 1 S101M,≥ 10 µM,0.591
chain 1 S101W,≥ 10 µM,0.618
chain 1 S101V Y103V,≥ 10 µM,0.316
chain 1 D106T,0.00785 µM,1.09
chain 1 D106A,2.96 µM,0.694
chain 1 D106E,0.0221 µM,1.1
chain 1 F29P Y32I M34L,≥ 10 µM,0.858
chain 1 T28L W36A,≥ 10 µM,0.508
chain 1 Y107H,0.00251 µM,1
chain 1 Y107C,≥ 10 µM,0.592
chain 1 Y107V,0.122 µM,1.15
chain 1 Y107L,1.91 µM,1.01
chain 1 F29T S30C,0.0391 µM,0.804
chain 1 M34I W36K,≥ 10 µM,0.24

Variant,Kd (fluorescein),yeast surface expression [1]
chain 1 M34I W36Q,≥ 10 µM,0.283
chain 1 D31R,0.00204 µM,0.736
chain 1 D31W,0.00293 µM,0.566
chain 1 T28N N35T,≥ 10 µM,0.93
chain 1 Y32G M34N,≥ 10 µM,0.613
chain 1 M34A W36M,≥ 10 µM,0.249
chain 1 G104P Y107M G109M,≥ 10 µM,0.257
chain 1 D31T W33L,≥ 10 µM,0.518
chain 1 Y103P M105K,≥ 10 µM,0.785
chain 1 Y32C M34P,≥ 10 µM,0.562
chain 1 G100V S101N,≥ 10 µM,0.787
chain 1 D106W Y107N,≥ 10 µM,0.222
chain 1 M105V G109Y,≥ 10 µM,0.227
chain 1 Y32A W33C,≥ 10 µM,0.924
chain 1 W108N G109N,≥ 10 µM,0.335
chain 1 N35D W36V,≥ 10 µM,0.668
chain 1 F29R Y32P N35E,≥ 10 µM,0.819
chain 1 W33E V37L,≥ 10 µM,0.674
chain 1 G100N Y107K,≥ 10 µM,0.6
chain 1 D31I Y32A,0.00444 µM,0.779
chain 1 S101W Y107W,≥ 10 µM,0.386
chain 1 D31E Y32P,≥ 10 µM,0.77
chain 1 G104E W108S,≥ 10 µM,0.331

Variant,Kd (fluorescein),yeast surface expression [1]
chain 1 S101T Y102H,≥ 10 µM,0.748
chain 1 Y103V W108Y,0.0011 µM,0.619
chain 1 D31T W36C,≥ 10 µM,0.789
chain 1 F29M D31T,0.00746 µM,0.848
chain 1 S30G M34I,0.00239 µM,0.889
chain 1 S101V D106I Y107C,≥ 10 µM,0.165
chain 1 G100K M105D,≥ 10 µM,0.375
chain 1 F29C V37M,0.02 µM,0.763
chain 1 M105R Y107G,≥ 10 µM,0.615
chain 1 Y103R M105K,0.00493 µM,0.768
chain 1 G100E D106M,≥ 10 µM,0.17
chain 1 S101M Y107H,≥ 10 µM,0.483
chain 1 T28Y D31Y,0.00184 µM,0.779
chain 1 Y32P W36K,≥ 10 µM,0.563
chain 1 T28A W33S,≥ 10 µM,0.826
chain 1 S101Q G104V,≥ 10 µM,0.296
chain 1 G104E D106A,≥ 10 µM,0.657
chain 1 S101R W108L,≥ 10 µM,0.22
chain 1 D106A W108V,≥ 10 µM,0.529
chain 1 W33C M34G N35E,≥ 10 µM,1.65
chain 1 G100S M105I,≥ 10 µM,0.943
chain 1 G104I W108H,≥ 10 µM,0.102
chain 1 S30H Y32T,≥ 10 µM,0.891
